Results from paper PMC11376570, “Enhancing the therapeutic potential of P29 protein-targeted monoclonal antibodies in the management of alveolar echinococcosis through CDC-mediated mechanisms” (PLOS Pathogens, 2024).

Assays:
[1] = biological target: T1, peptide 13 of the 45 overlapping peptides of rEgP29 (Echinococcus granulosus); test: ELISA; peptide scan by indirect ELISA; 45 overlapping 15-mer peptides of rEgP29 coated at 5 ug/mL; purified mAb at 1:5,000; settings: both partners purified
T1 construct: residues 61-75 of P29 of Echinococcus granulosus, one of 45 overlapping 15-mers (overlap of 10 residues); source: synthetic peptide
T1 chain: NIASKVADAFQKNKE

[2] = biological target: T2, recombinant Echinococcus granulosus P29 (Echinococcus granulosus, UniProt Q9U8G7); test: SPR; called SPR by the paper; mAb 4G10F4 (5 ug/mL) captured on the AMC probe, antigen P29 at 500, 250, 125, 62.5, 31.3 and 0 nM in PBST; Octet RH16 (Sartorius), Data Analysis 12.0; settings: both partners purified
T2 construct: P29, 29 kDa antigen of Echinococcus granulosus, GenBank AAD53328.1; 238 amino acids by the BLAST comparison with E. multilocularis P29 (235/238); band at about 30 kDa on SDS-PAGE; also called rEgP29; rEg.P29
T2 sequence (Q9U8G7 whole entry): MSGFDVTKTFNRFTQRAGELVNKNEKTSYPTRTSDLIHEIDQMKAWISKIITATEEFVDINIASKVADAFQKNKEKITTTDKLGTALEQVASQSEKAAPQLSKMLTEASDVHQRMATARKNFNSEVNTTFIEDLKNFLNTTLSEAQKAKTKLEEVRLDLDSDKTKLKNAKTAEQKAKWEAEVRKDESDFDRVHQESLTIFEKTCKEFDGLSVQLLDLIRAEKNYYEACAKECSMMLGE

B1: 4G10F4 monoclonal antibody against rEgP29 (antibody, V domains shown)
VH: EVKLEESGPGLVAPSQSLSITCTVSGFSLFSYAVHWVRQPPGKGLEWLGVIWAGGSTDYNSALMSRLSISKDNSKSQVFLKMNSLQTDDTAMYYCASIHYYGYWHFDVWGAGTTVTVSS
VL: DIVMTQSPLSLPVSLGDQASISCRSSQSIVHSNGNTYLEWYLQKPGQSPKLLIYKVSNRFSGVPDRFSGSGSGTDFTLKISRVEAEDLGVYYCFQGSHVPYTFGGGTKLEIK
notes: Mouse IgG1 (subtype by ELISA); also called 4G10F4 mAb; anti-P29 mAb; source: mouse hybridoma (BALB/c splenocytes fused with Sp2/0), culture supernatant; also purified from serum-free supernatant (protein G column)
[1]
  binding result: binds
[2]
  Kd: 6.29 nM
  koff: 0.00049 s⁻¹
  kon: 77800 M⁻¹ s⁻¹
